The supplement of paper PMC10567573

B1: SPRY1 (parent)
chain: WIHRPGCRCKNSNTVYCKLESCPS

Variants of: B1
Assay: protein stability index of a GFP-peptide fusion (GPS, HEK-293T) (PSI 1-6); higher = more stable
Settings: c terminus: a fixed tail appended
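Also: lentivirally expressed fusions sorted by FACS into six bins by GFP to DsRed ratio, PSI derived from sequencing read proportions per bin multiplied by bin number.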

Variant	protein stability index
WIHHPGCRCKNSNTVYCKLESCPS	3.3
WIHNPGCRCKNSNTVYCKLESCPS	3.43
WIHSPGCRCKNSNTVYCKLESCPS	3.07
WIHWPGCRCKNSNTVYCKLESCPS	1.97
WIHAPGCRCKNSNTVYCKLESCPS	2.51
WIHTPGCRCKNSNTVYCKLESCPS	2.67
WIHCPGCRCKNSNTVYCKLESCPS	2.77
WIHEPGCRCKNSNTVYCKLESCPS	3.48
WIHMPGCRCKNSNTVYCKLESCPS	2.85
WIHGPGCRCKNSNTVYCKLESCPS	3.95
WIHVPGCRCKNSNTVYCKLESCPS	3.11
WIHYPGCRCKNSNTVYCKLESCPS	3.18
WIHFPGCRCKNSNTVYCKLESCPS	2.72
WIHIPGCRCKNSNTVYCKLESCPS	2.82
WIHPPGCRCKNSNTVYCKLESCPS	3.03
WIHLPGCRCKNSNTVYCKLESCPS	3.06
WIHQPGCRCKNSNTVYCKLESCPS	4.23
WIHKPGCRCKNSNTVYCKLESCPS	2.34
WIHDPGCRCKNSNTVYCKLESCPS	3.73
WIFRPGCRCKNSNTVYCKLESCPS	1.87
WIARPGCRCKNSNTVYCKLESCPS	2.75
WIMRPGCRCKNSNTVYCKLESCPS	2.52
WIIRPGCRCKNSNTVYCKLESCPS	1.74
WILRPGCRCKNSNTVYCKLESCPS	2.31

Variant	protein stability index
WITRPGCRCKNSNTVYCKLESCPS	2.71
WISRPGCRCKNSNTVYCKLESCPS	3.16
WICRPGCRCKNSNTVYCKLESCPS	1.48
WIERPGCRCKNSNTVYCKLESCPS	3.78
WIQRPGCRCKNSNTVYCKLESCPS	2.5
WIVRPGCRCKNSNTVYCKLESCPS	1.72
WINRPGCRCKNSNTVYCKLESCPS	2.4
WIDRPGCRCKNSNTVYCKLESCPS	3.37
WIWRPGCRCKNSNTVYCKLESCPS	1.73
WIPRPGCRCKNSNTVYCKLESCPS	2.79
WIKRPGCRCKNSNTVYCKLESCPS	2.13
WIGRPGCRCKNSNTVYCKLESCPS	2.76
WIYRPGCRCKNSNTVYCKLESCPS	1.59
WIRRPGCRCKNSNTVYCKLESCPS	2.44
WIHRPGCRCKHSNTVYCKLESCPS	2.52
WIHRPGCRCKQSNTVYCKLESCPS	2.41
WIHRPGCRCKVSNTVYCKLESCPS	3.49
WIHRPGCRCKLSNTVYCKLESCPS	2.51
WIHRPGCRCKESNTVYCKLESCPS	2.62
WIHRPGCRCKTSNTVYCKLESCPS	2.1
WIHRPGCRCKMSNTVYCKLESCPS	2.66
WIHRPGCRCKGSNTVYCKLESCPS	2.15
WIHRPGCRCKSSNTVYCKLESCPS	2.7
WIHRPGCRCKRSNTVYCKLESCPS	4.1

Variant	protein stability index
WIHRPGCRCKYSNTVYCKLESCPS	2.07
WIHRPGCRCKWSNTVYCKLESCPS	2.6
WIHRPGCRCKPSNTVYCKLESCPS	2.27
WIHRPGCRCKFSNTVYCKLESCPS	2.42
WIHRPGCRCKASNTVYCKLESCPS	3.47
WIHRPGCRCKDSNTVYCKLESCPS	2.88
WIHRPGCRCKISNTVYCKLESCPS	1.86
WIHRPGCRCKCSNTVYCKLESCPS	1.83
WIHRPGCRCKKSNTVYCKLESCPS	2.19
WWHRPGCRCKNSNTVYCKLESCPS	2.12
WQHRPGCRCKNSNTVYCKLESCPS	2.82
WRHRPGCRCKNSNTVYCKLESCPS	2.46
WVHRPGCRCKNSNTVYCKLESCPS	2.76
WSHRPGCRCKNSNTVYCKLESCPS	3.27
WTHRPGCRCKNSNTVYCKLESCPS	3.13
WYHRPGCRCKNSNTVYCKLESCPS	2.23
WIHRPGCRCVNSNTVYCKLESCPS	2
WIHRPGCRCPNSNTVYCKLESCPS	2.73
WIHRPGCRCQNSNTVYCKLESCPS	2.81
WIHRPGCRCHNSNTVYCKLESCPS	2.77
WIHRPGCRCLNSNTVYCKLESCPS	1.96
WIHRPGCRCMNSNTVYCKLESCPS	1.63
WIHRPGCRCANSNTVYCKLESCPS	2.33
WIHRPGCRCYNSNTVYCKLESCPS	1.82

Variant	protein stability index
WIHRPGCRCNNSNTVYCKLESCPS	2.75
WIHRPGCRCGNSNTVYCKLESCPS	2.75
WIHRPGCRCENSNTVYCKLESCPS	2.73
WIHRPGCRCINSNTVYCKLESCPS	2.88
WIHRPGCRCSNSNTVYCKLESCPS	2.26
WIHRPGCRCWNSNTVYCKLESCPS	2.41
WIHRPGCRCRNSNTVYCKLESCPS	2.21
WIHRPGCRCCNSNTVYCKLESCPS	1.88
WIHRPGCRCFNSNTVYCKLESCPS	1.74
WIHRPGCRCTNSNTVYCKLESCPS	3.11
WIHRPGCRCDNSNTVYCKLESCPS	3.1
WIHRPGCRHKNSNTVYCKLESCPS	1.85
WIHRPGCRDKNSNTVYCKLESCPS	2.07
WIHRPGCRTKNSNTVYCKLESCPS	1.49
WIHRPGCRKKNSNTVYCKLESCPS	1.84
WIHRPGCRRKNSNTVYCKLESCPS	1.45
WIHRPGCRQKNSNTVYCKLESCPS	2
WIHRPGCRNKNSNTVYCKLESCPS	1.97
WIHRPGCRSKNSNTVYCKLESCPS	3.7
WIHRPGCRPKNSNTVYCKLESCPS	2.4
WIHRPGCRWKNSNTVYCKLESCPS	2.04
WIHRPGCRLKNSNTVYCKLESCPS	2.69
WIHRPGCRVKNSNTVYCKLESCPS	3.41
WIHRPGCRGKNSNTVYCKLESCPS	1.73

Variant	protein stability index
WIHRPGCRAKNSNTVYCKLESCPS	2.19
WIHRPGCRIKNSNTVYCKLESCPS	1.17
WIHRPCCRCKNSNTVYCKLESCPS	2
WIHRPTCRCKNSNTVYCKLESCPS	3.09
WIHRPLCRCKNSNTVYCKLESCPS	1.97
WIHRPPCRCKNSNTVYCKLESCPS	2.61
WIHRPVCRCKNSNTVYCKLESCPS	1.93
WIHRPACRCKNSNTVYCKLESCPS	2.15
WIHRPICRCKNSNTVYCKLESCPS	3.08
WIHRPRCRCKNSNTVYCKLESCPS	2.12
WIHRPSCRCKNSNTVYCKLESCPS	2.48
WIHRPDCRCKNSNTVYCKLESCPS	2.62
WIHRPFCRCKNSNTVYCKLESCPS	1.7
WIHRPECRCKNSNTVYCKLESCPS	3.01
WIHRPWCRCKNSNTVYCKLESCPS	2.69
WIHRPMCRCKNSNTVYCKLESCPS	2.16
WIHRPNCRCKNSNTVYCKLESCPS	2.37
WIHRPQCRCKNSNTVYCKLESCPS	2.16
WIHRPKCRCKNSNTVYCKLESCPS	2.32
WIHRPYCRCKNSNTVYCKLESCPS	2.26
WIHRPHCRCKNSNTVYCKLESCPS	2.06
WIHRPGRRCKNSNTVYCKLESCPS	3.4
WIHRPGNRCKNSNTVYCKLESCPS	2.37
WIHRPGPRCKNSNTVYCKLESCPS	1.4

Variant	protein stability index
WIHRPGKRCKNSNTVYCKLESCPS	1.49
WIHRPGTRCKNSNTVYCKLESCPS	1.82
WIHRPGERCKNSNTVYCKLESCPS	1.85
WIHRPGARCKNSNTVYCKLESCPS	2.35
WIHRPGIRCKNSNTVYCKLESCPS	1.52
WIHRPGWRCKNSNTVYCKLESCPS	3
WIHRPGSRCKNSNTVYCKLESCPS	1.77
WIHRPGGRCKNSNTVYCKLESCPS	1.25
WIHRPGYRCKNSNTVYCKLESCPS	1.45
WIHRPGVRCKNSNTVYCKLESCPS	1.15
WIHRPGDRCKNSNTVYCKLESCPS	2.28
WIHRPGHRCKNSNTVYCKLESCPS	2.55
WIHRPGLRCKNSNTVYCKLESCPS	1.72
WIHRPGQRCKNSNTVYCKLESCPS	1.94
WIHRPGMRCKNSNTVYCKLESCPS	2.14
WIHRPGFRCKNSNTVYCKLESCPS	2.89
WIHRYGCRCKNSNTVYCKLESCPS	3.19
WIHRTGCRCKNSNTVYCKLESCPS	2.37
WIHRQGCRCKNSNTVYCKLESCPS	2.38
WIHRRGCRCKNSNTVYCKLESCPS	3.01
WIHREGCRCKNSNTVYCKLESCPS	3.08
WIHRFGCRCKNSNTVYCKLESCPS	1.79
WIHRNGCRCKNSNTVYCKLESCPS	2.39
WIHRSGCRCKNSNTVYCKLESCPS	2.27

Variant	protein stability index
WIHRKGCRCKNSNTVYCKLESCPS	2.21
WIHRVGCRCKNSNTVYCKLESCPS	2.65
WIHRLGCRCKNSNTVYCKLESCPS	2.77
WIHRIGCRCKNSNTVYCKLESCPS	2.11
WIHRWGCRCKNSNTVYCKLESCPS	1.82
WIHRDGCRCKNSNTVYCKLESCPS	3.42
WIHRMGCRCKNSNTVYCKLESCPS	2.15
WIHRAGCRCKNSNTVYCKLESCPS	2.02
WIHRGGCRCKNSNTVYCKLESCPS	1.85
WIHRHGCRCKNSNTVYCKLESCPS	1.91
WIHRCGCRCKNSNTVYCKLESCPS	2.02
WIHRPGCGCKNSNTVYCKLESCPS	2.81
WIHRPGCICKNSNTVYCKLESCPS	2.38
WIHRPGCKCKNSNTVYCKLESCPS	2.68
WIHRPGCWCKNSNTVYCKLESCPS	2.21
WIHRPGCTCKNSNTVYCKLESCPS	2.26
WIHRPGCVCKNSNTVYCKLESCPS	2.57
WIHRPGCCCKNSNTVYCKLESCPS	2.25
WIHRPGCNCKNSNTVYCKLESCPS	3.28
WIHRPGCPCKNSNTVYCKLESCPS	2.4
WIHRPGCHCKNSNTVYCKLESCPS	2.63
WIHRPGCDCKNSNTVYCKLESCPS	2.67
WIHRPGCYCKNSNTVYCKLESCPS	2.2
WIHRPGCLCKNSNTVYCKLESCPS	2.6

Variant	protein stability index
WIHRPGCACKNSNTVYCKLESCPS	3
WIHRPGCFCKNSNTVYCKLESCPS	2.08
WIHRPGCECKNSNTVYCKLESCPS	3.33
WIHRPGCMCKNSNTVYCKLESCPS	2.83
WIHRPGCSCKNSNTVYCKLESCPS	2.24
WIHRPGCQCKNSNTVYCKLESCPS	3.29
WIHRPGCRCKNENTVYCKLESCPS	2.71
WIHRPGCRCKNDNTVYCKLESCPS	2.16
WIHRPGCRCKNCNTVYCKLESCPS	3.25
WIHRPGCRCKNANTVYCKLESCPS	3.15
WIHRPGCRCKNHNTVYCKLESCPS	1.4
WIHRPGCRCKNMNTVYCKLESCPS	2.33
WIHRPGCRCKNNNTVYCKLESCPS	2.12
WIHRPGCRCKNQNTVYCKLESCPS	2.14
WIHRPGCRCKNKNTVYCKLESCPS	2.32
WIHRPGCRCKNGNTVYCKLESCPS	3.79
WIHRPGCRCKNPNTVYCKLESCPS	1.65
WIHRPGCRCKNLNTVYCKLESCPS	3.01
WIHRPGCRCKNINTVYCKLESCPS	2.4
WIHRPGCRCKNFNTVYCKLESCPS	2.1
